Results on one protein are retold here after article PMC2843815 (Protein expression and purification, 2010).

This data set concerns the molecule itself. Nature of the data set: SEC-MALS. On the technique in general: Size exclusion chromatography separates by hydrodynamic size, large species first.

B1: Bor1p (natural protein, S. cerevisiae)
chain: MSNESTRVTVSRGCTASDECAQALERTNDELDRESSVSESRSDEESHEKLSRRRFPTLGIGIWLDLKDRIPYYKSDWVDAFNYRVIPSIVDTYFNNLLPAIAFAQDMFDRTDNSYGVNEVLLSSAMAGIVFGVLGGQPLCIVGVTGPISIFNYTVYEIIKPLNTSYFGFMFWICMWSMIFHLVLAFTNAVCLLQYVTTFPCDIFGLFINVVYIQKGIQILTRQFSAKSGEKSVQDGFASVVVALVMTAFGLFFKLFHYYPLFSHRIRTFISDYSTALSVLFWSSFTHFGGYLHDVKFKKLPITKAFFPTSKVNRPQNTWLAYEPIPVKDVFIALPFGIFLTILFYFDHNVSSLMAQRHQYKLKKPSSFHYDFALLGLTTCISGVLGIPAPNGLIPQAPLHTETLLVRDSNQKVISCVEQRFTNTFQGLMILGTMTRPLLVCLGEIPQAVLSGLFFIMGINGLMTNSIIQRLVFLFSDPNRRDNTSPLMKVSKKSMLIFLSFSLTGFAGEFAITNTIAAIGFPLVLLLSVLVSFSFAYIFPTEELKILDTNVAQKFTIKNLLLENIRDAKFCDKHEDSGLEVLFQ
The stoichiometry N is a count of units in the complex or per binding partner. For B1, the “stoichiometry N” value was 2.
